Reference: patent US10858688

Target: microtubule in fixed and permeabilized Xenopus laevis XTC cells (Xenopus laevis)
Assay: single-molecule speckle (SiMS) TIRF imaging of EGFP-fused probe (cell lysate) on fixed, permeabilized XTC cells; exponential fit of speckle lifetimes

half-life	Substance
0.106 s	MAP4 fragment (amino acid residues 659-908 of sequence number 4), FLAG-EGFP fused at the N terminus
0.027 s	APC fragment (amino acid residues 2781-2819 of sequence number 14), FLAG-EGFP fused at the N terminus
0.1 s	APC fragment (amino acid residues 2536-2843 of sequence number 14), EGFP-3xFLAG fused at the C terminus
0.109 s	MAP4 fragment (amino acid residues 1-908 of sequence number 4), FLAG-EGFP fused at the N terminus
0.044 s	CLIP-170 fragment (amino acid residues 3-309 of sequence number 12), FLAG-EGFP fused at the N terminus
0.06 s	Tau isoform 4 (sequence number 6, residues 1-352), FLAG-EGFP fused at the N terminus
0.11 s	Tau isoform 3 (full length of sequence number 5, residues 1-383), FLAG-EGFP fused at the N terminus

Target: intermediate filament in fixed and permeabilized Xenopus laevis XTC cells (Xenopus laevis)
Assay: as above

Substance	half-life
Plectin-1 fragment (amino acid residues 4022-4364 of sequence number 8), FLAG-EGFP fused at the N terminus	0.103 s
Plectin-1 fragment (amino acid residues 3777-4684 of sequence number 8), FLAG-EGFP fused at the N terminus	0.457 s
Plectin-1 fragment (amino acid residues 4066-4364 of sequence number 8), FLAG-EGFP fused at the N terminus	7.7 s

Second part, the substance after the results:

half-life	Substance
0.052 s	Plectin-1 fragment (amino acid residues 3777-4313 of sequence number 8), FLAG-EGFP fused at the N terminus
0.059 s	Plectin-1 fragment (amino acid residues 3777-4364 of sequence number 8), FLAG-EGFP fused at the N terminus

Target: focal adhesion in fixed and permeabilized Xenopus laevis XTC cells (Xenopus laevis)
Assay: as above

Substance	half-life
phosphatidylinositol-(4)-phosphate 5-kinase type Iγ-90 (PIPKIγ) fragment (641-668) (sequence number 18), N terminus tagged with FLAG-EGFP	0.496 s
Paxillin full length (FL) (full length of sequence number 15, residues 1-557), FLAG-EGFP fused at the N terminus	0.196 s

Results, then the substance that gave them:

half-life	Substance
0.246 s	Paxillin fragment (amino acid residues 54-557 of sequence number 15), FLAG-EGFP fused at the N terminus
0.138 s	Paxillin fragment (amino acid residues 167-557 of sequence number 15), FLAG-EGFP fused at the N terminus
0.091 s	Paxillin fragment (amino acid residues 54-498 of sequence number 15), FLAG-EGFP fused at the N terminus
